How the values were obtained:
[1] = target: recombinant human VEGF165 protein (human) (UniProt P15692); assay: cell-based or functional assay
[2] = target: recombinant human VEGF165 protein (human) (UniProt P15692); assay: streptavidin-coated sensor with immobilized biotin-labeled VEGF165; reference Avastin
[3] = target: recombinant human VEGF165 protein (human) (UniProt P15692); assay: streptavidin-coated sensor with immobilized biotin-labeled VEGF165, antibody at several concentrations
[4] = target: recombinant human VEGF165 protein (human) (UniProt P15692); assay: ELISA; coated VEGF165 titrated 0.15-3000 ng/mL, antibody fixed at 1 µg/mL (EC50 is of the coating concentration)

B1: humanized antibody VEGF-H988 (antibody, human IgG1, kappa, V domains shown)
VH: QSVQESGPGLVKPSETLSLTCTVSGIDLSSYAISWVRQPPGKGLEYIGYIWNDLFTYYASWAKGRVTISVDTSKNQVDLKLSSVTAADTAVYFCARGTLGDYGGMDPWGQGTLVTVSS
VL: ELQLTQSPSSLSASVGDRVTITCQSSKFLWQGRRLAWYQQKPGKVPKLLIYGASTLASGVPSRFKGSGSGTDFTLTISSLQPEDVATYYCAGYKSYDGDVVGFGGGTKVEIKR
EC50(nM), neutralizing VEGF165 at 10 ng/mL, HUVEC proliferation [1]: 0.14 nM | EC50(nM), neutralizing VEGF165 at 10 ng/mL, HUVEC proliferation (run against Avastin) [1]: 0.13 nM | EC50(nM), neutralizing VEGF165 at 100 ng/mL, HUVEC proliferation [1]: 1.34 nM | EC50(nM), neutralizing VEGF165 at 100 ng/mL, HUVEC proliferation (run against Avastin) [1]: 1.36 nM | EC50(nM), neutralizing VEGF165 at 1000 ng/mL, HUVEC proliferation [1]: 9.67 nM | EC50(nM), neutralizing VEGF165 at 1000 ng/mL, HUVEC proliferation (run against Avastin) [1]: 9.33 nM | maximum neutralization rate (%), VEGF165 at 10 ng/mL, HUVEC proliferation [1]: 100% | maximum neutralization rate (%), VEGF165 at 10 ng/mL, HUVEC proliferation (run against Avastin) [1]: 100% | maximum neutralization rate (%), VEGF165 at 100 ng/mL, HUVEC proliferation [1]: 102% | maximum neutralization rate (%), VEGF165 at 100 ng/mL, HUVEC proliferation (run against Avastin) [1]: 102% | maximum neutralization rate (%), VEGF165 at 1000 ng/mL, HUVEC proliferation [1]: 104% | maximum neutralization rate (%), VEGF165 at 1000 ng/mL, HUVEC proliferation (run against Avastin) [1]: 104% | fold affinity against Avastin [2]: 1.5 fold | Kd [3]: 0.0195 nM | koff [3]: 6.7e-06 s⁻¹ | kon [3]: 344000 M⁻¹ s⁻¹ | EC50 [4]: 2.42 ng/mL

Source: patent publication US20220144930A1
